The values that follow come from patent publication US20160320385A1.

The target of assay [1] is monoclonal antibody (moAb) G12. In words: competitive ELISA with G12-HRP on a plate coated with Sigma gliadin. In general terms: In an ELISA, binding on a coated surface is turned into a signal by an enzyme label.
In assay [2] the target is 33-mer peptide from alpha-2 gliadin. In words: immunochromatographic strips based on G12 moAb (GlutenTox stick); untreated 33-mer peptide.
Assay [3] has as its target PWG gliadin after gastric and intestinal digestion (pepsin, then trypsin and chymotrypsin). Kind of assay: immunochromatographic strips based on G12 moAb (GlutenTox stick); hydrolyzed gliadin.
The target in assay [4] is PWG gliadin (intact, undigested) (wheat). Kind of assay: immunochromatographic strips based on G12 moAb (GlutenTox stick); gliadin.
Assay [5] has as its target 33-mer peptide from alpha-2 gliadin. In words: immunochromatographic strips based on G12 moAb (GlutenTox stick); 33-mer peptide after digestion.

33-mer peptide from alpha-2 gliadin, sequence (peptide, as listed by the source): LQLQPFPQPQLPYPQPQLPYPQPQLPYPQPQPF

With PWG gliadin (intact, undigested), the concentration of 33-mer (33-mer equivalents) in assay [1] turned out to be 21.6 ng 33-mer/µg. Same read-out and setting: with “PWG gliadin after gastric and intestinal digestion (pepsin, then trypsin and chymotrypsin)” the figure was 7.5 ng 33-mer/µg. The same measure, in the same setting: in the case of “PWG gliadin after gastric digestion (pepsin)” it was 24.5 ng 33-mer/ng. Turning to monoclonal antibody (moAb) G12, the detection limit in assay [2] came out at 0.5 ng/mL; in assay [3], 50 ng/mL; in assay [4], 30 ng/mL; in assay [5] it was 0.5 ng/mL.
